Positions count from the first letter of the chain named. Where two headings read alike, the source gives them in different places. Each block holds one binder with its values, some of them ahead of it.
Legend:
[1] = molecular target: T1, Mouse PD-L1-HisTag (#50010-M08H, Sino Biological Inc.) (mouse, UniProt Q9EP73 19-238); assay: ELISA on coated His-tag mouse PD-L1, OD450-630
T1 construct: Bought protein coated on the ELISA plate; also called mPD-L1; His-tag mouse PD-L1 protein; not shown: His tag

[2] = molecular target: T2, human PD-L1 (soluble protein of the kinetic measurements) (human, UniProt Q9NZQ7 19-238, limits assumed); assay: BLI (Octet), antibody fixed on biosensor, PD-L1 in solution
T2 construct: kept apart from the His-tag protein of the ELISA; also called hPD-L1
Description: (§1) The binding ability of the selected anti-PD-L1 antibody to human or mouse PD-L1 was measured using the Octet system (Fortebio Inc. US). For this purpose, an anti-PD-L1 antibody was fixed on a biosensor, and binding kinetics at each concentration of human or mouse PD-L1 were measured to calculate a binding rate constant (kₐ), a dissociation rate constant (kdis) and a binding constant (KD) (Table 3).

[3] = molecular target: T3, mouse PD-L1 on mPD-L1/CHO-K1 overexpressing cells (mouse, UniProt Q9EP73 19-290); assay: flow cytometry, purified IgG on mPD-L1/CHO-K1 cells, PE anti-human IgG-Fc
T3 construct: whole, on cells; also called mouse PD-L1-expressing cells
Description: (§2) For flow cytometry, overexpressing cell lines (hPD-L1/CHO-K1, mPD-L1/CHO-K1), established by introducing human and. mouse PD-L1 genes into CHO-K1 cells, were used. Each cell was maintained and cultured, washed with PBS, suspended in 5 mM EDTA and then recovered through centrifugation. A cell suspension (5×10⁶ cells/ml) was prepared using a FACS-exclusive buffer (containing 2% FBS and PBS 0.05% sodium azide), and was seeded at 100 μl/tube. […] of a test antibody was added at 100 μl to each test tube and then allowed to stand at 4° C. for 30 minutes to induce antibody-cell binding. […] After washing with 2 ml of FACS buffer, 200 μl of FACS buffer was added to suspend the cells. As a positive control group, fluorescence labeling was conducted using FITC-conjugated anti-human PD-L1 antibody (#558065, BD Biosciences) and PE-conjugated anti-mouse […] (#558091, BD Biosciences).

[4] = molecular target: T4, mouse PD-L1 (soluble protein of the kinetic measurements) (mouse, UniProt Q9EP73 19-238, limits assumed); assay: BLI (Octet), antibody fixed on biosensor, PD-L1 in solution
T4 construct: kept apart from the His-tag protein of the ELISA; also called mPD-L1
Description: as §1

[5] = molecular target: T2, human PD-L1 (soluble protein of the …); assay: as above; remark: listed apart in the source
Description: as §1
(§3) The cell-binding ability of the optimized anti-PD-L1 antibody was measured through flow cytometry. The experiment was performed in the same manner as in Example 6. […] In order to evaluate binding force, binding kinetics were analyzed using Octet and the binding constant was calculated (Table 7).

[6] = molecular target: T4, mouse PD-L1 (soluble protein of the …); assay: as above; remark: listed apart in the source
Description: as §1, §3

[7] = molecular target: T5, human PD-L1 on hPD-L1/CHO-K1 overexpressing cells (human, UniProt Q9NZQ7 19-290); assay: flow cytometry on hPD-L1/CHO-K1 cells (sheet label hPD-1/CHO-K1)
T5 construct: whole, on cells; also called human PD-L1-expressing cells
Description: as §2, §3

[8] = molecular target: T3, mouse PD-L1 on mPD-L1/CHO-K1 …; assay: flow cytometry on mPD-L1/CHO-K1 cells (sheet label mPD-1/CHO-K1)
Description: as §2, §3

T4 sequence (Q9EP73 19-238 limits assumed): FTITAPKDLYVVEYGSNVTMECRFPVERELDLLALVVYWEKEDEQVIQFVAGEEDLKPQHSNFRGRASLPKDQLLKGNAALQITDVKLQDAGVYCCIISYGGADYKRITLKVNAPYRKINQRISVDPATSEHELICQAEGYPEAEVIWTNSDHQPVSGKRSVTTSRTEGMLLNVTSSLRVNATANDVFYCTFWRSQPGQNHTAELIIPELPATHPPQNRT
T2 sequence (Q9NZQ7 19-238 limits assumed): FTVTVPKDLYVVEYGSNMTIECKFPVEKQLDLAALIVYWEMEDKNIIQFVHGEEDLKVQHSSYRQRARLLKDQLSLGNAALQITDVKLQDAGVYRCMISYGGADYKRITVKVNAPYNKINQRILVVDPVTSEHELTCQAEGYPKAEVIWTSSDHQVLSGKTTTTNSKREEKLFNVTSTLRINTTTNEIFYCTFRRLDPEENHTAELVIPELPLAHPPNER
T3 sequence (Q9EP73 19-290): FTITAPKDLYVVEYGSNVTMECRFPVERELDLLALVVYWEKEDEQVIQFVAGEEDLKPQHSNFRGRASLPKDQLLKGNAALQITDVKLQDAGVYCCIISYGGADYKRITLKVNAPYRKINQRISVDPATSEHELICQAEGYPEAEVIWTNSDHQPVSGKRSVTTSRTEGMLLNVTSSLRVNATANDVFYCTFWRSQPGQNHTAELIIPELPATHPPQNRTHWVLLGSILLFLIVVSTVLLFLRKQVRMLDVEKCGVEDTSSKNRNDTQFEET
T5 sequence (Q9NZQ7 19-290): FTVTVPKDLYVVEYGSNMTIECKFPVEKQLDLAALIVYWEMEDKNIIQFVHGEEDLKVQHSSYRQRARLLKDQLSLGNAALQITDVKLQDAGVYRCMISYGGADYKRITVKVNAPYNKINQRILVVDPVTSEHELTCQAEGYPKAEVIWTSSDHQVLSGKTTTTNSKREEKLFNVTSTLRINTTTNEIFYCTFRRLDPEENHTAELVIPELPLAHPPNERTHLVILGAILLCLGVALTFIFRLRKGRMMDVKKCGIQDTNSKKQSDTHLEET
T1 sequence (Q9EP73 19-238 limits assumed, stated change not applied): as the sequence (Q9EP73 19-238 limits assumed) above

B1: 1G1 anti-PD-L1 antibody (IgG form) (antibody, V domains shown)
VH: QVQLVESGGGLVQPGRSLRLSCAASGFTFDDYAMHWVRQAPGKGLEWVSGISWNSGSIGYADSVKGRFTISRDNAKNSLYLQMNSLRAEDTAVYYCAKPRDISSWLGMDVWGQGTTVTVSS
VL: DIQMTQSPSSVSASVGDRVTITCRASQDISSWLAWYQQKPGKAPKLLIYAASSLQSGVPSRFSGSGSGTDFTLTISSLQPEDSATYYCQQTNNFPYTFGQGTKLEIKR
notes: Converted to IgG with the vectors pIgGHD-6A6Hvy and pIgGLD-6A6Lgt; Expressed in Expi293F cells; also called IG1
binding result [1]: no binding | Kd [2]: 0.629 nM | koff [2]: 0.000146 s⁻¹ | kon [2]: 232000 M⁻¹ s⁻¹ | binding result [3]: no binding

B2: ME4 anti-PD-L1 antibody (IgG form) (antibody, V domains shown)
VH: QVQLVESGAEVKKPGSSVKVSCKASGGTFNNYAVSWVRQAPGQGLEWMGRIIPILGIANYAQTFQGRVTITADKSTTTAYMELSSLRSEDTAVYYCARSYSGYAEGAFDIWGQGTMVTVSS
VL: QFVLTQPPSVSGAPGQRVTISCTGSSSNIGAGYDVHWYQQLPGTAPKVLIYGNSDRPSGVPDRFSGSKSGTSASLAITGLQGEDKATYYCQSYDSRLSGPVFGTGTKVTVLG
notes: Converted to IgG with the vectors pIgGHD-6A6Hvy and pIgGLD-6A6Lgt; Expressed in Expi293F cells
Kd [2]: 1.72 nM | koff [2]: 0.000324 s⁻¹ | kon [2]: 188000 M⁻¹ s⁻¹ | Kd [4]: 37.4 nM | koff [4]: 0.00211 s⁻¹ | kon [4]: 56300 M⁻¹ s⁻¹ | koff [5]: 0.000324 s⁻¹ | kon [5]: 188000 M⁻¹ s⁻¹ | Kd [6]: 37.4 nM | koff [6]: 0.00211 s⁻¹ | kon [6]: 56300 M⁻¹ s⁻¹ | % Gated in M1 [7]: 83.2% | Geo Mean in M1 [7]: 34.4 | Geo Mean, all events [7]: 27.8 | Mean in M1 [7]: 38.3 | Mean, all events [7]: 33.6 | % Gated in M1 [8]: 28.8% | Geo Mean in M1 [8]: 20 | Geo Mean, all events [8]: 10.4 | Mean in M1 [8]: 20.6 | Mean, all events [8]: 12.3

B3: ME4.A11 anti-PD-L1 antibody (IgG form) (antibody, V domains shown)
VH: B2 VH with Y100R, S101G, E105H
VL: B2 VL
Kd [5]: 0.918 nM | koff [5]: 0.000109 s⁻¹ | kon [5]: 118000 M⁻¹ s⁻¹ | Kd [6]: 4.86 nM | koff [6]: 0.000626 s⁻¹ | kon [6]: 129000 M⁻¹ s⁻¹ | % Gated in M1 [7]: 52.6% | Geo Mean in M1 [7]: 19.4 | Geo Mean, all events [7]: 12.1 | Mean in M1 [7]: 21 | Mean, all events [7]: 14.7 | % Gated in M1 [8]: 9.44% | Geo Mean in M1 [8]: 14.2 | Geo Mean, all events [8]: 5.55 | Mean in M1 [8]: 14.5 | Mean, all events [8]: 6.63

B4: ME4.B10 anti-PD-L1 antibody (IgG form) (antibody, V domains shown)
VH: B2 VH with Y100A, S101R, E105H
VL: B2 VL
Kd [5]: 0.167 nM | koff [5]: ~2.42e-05 s⁻¹ | kon [5]: 145000 M⁻¹ s⁻¹ | Kd [6]: 1.62 nM | koff [6]: 0.000422 s⁻¹ | kon [6]: 260000 M⁻¹ s⁻¹ | % Gated in M1 [7]: 50.3% | Geo Mean in M1 [7]: 19.4 | Geo Mean, all events [7]: 11.5 | Mean in M1 [7]: 21 | Mean, all events [7]: 14.2 | % Gated in M1 [8]: 18.1% | Geo Mean in M1 [8]: 15 | Geo Mean, all events [8]: 6.41 | Mean in M1 [8]: 15.4 | Mean, all events [8]: 7.85

Continued, values first:

Kd [5]: 0.0194 nM | koff [5]: 3.19e-06 s⁻¹ | kon [5]: 164000 M⁻¹ s⁻¹ | Kd [6]: 1.22 nM | koff [6]: 0.000379 s⁻¹ | kon [6]: 310000 M⁻¹ s⁻¹ | % Gated in M1 [7]: 81.6% | Geo Mean in M1 [7]: 29.2 | Geo Mean, all events [7]: 22.5 | Mean in M1 [7]: 33.8 | Mean, all events [7]: 28.9 | % Gated in M1 [8]: 27.2% | Geo Mean in M1 [8]: 16.1 | Geo Mean, all events [8]: 7.13 | Mean in M1 [8]: 16.6 | Mean, all events [8]: 9.1
B5: ME4.B12 anti-PD-L1 antibody (IgG form) (antibody, V domains shown)
VH: B2 VH with Y100S, S101F, A104S, E105V
VL: B2 VL

Kd [5]: 0.134 nM | koff [5]: 2.2e-05 s⁻¹ | kon [5]: 165000 M⁻¹ s⁻¹ | Kd [6]: 2.65 nM | koff [6]: 0.000817 s⁻¹ | kon [6]: 308000 M⁻¹ s⁻¹ | % Gated in M1 [7]: 44.6% | Geo Mean in M1 [7]: 18.4 | Geo Mean, all events [7]: 10.6 | Mean in M1 [7]: 19.7 | Mean, all events [7]: 12.9 | % Gated in M1 [8]: 7.31% | Geo Mean in M1 [8]: 14.2 | Geo Mean, all events [8]: 5.39 | Mean in M1 [8]: 14.4 | Mean, all events [8]: 6.38
B6: ME4.A12 anti-PD-L1 antibody (IgG form) (antibody, V domains shown)
VH: B2 VH with Y100H, S101W, E105H
VL: B2 VL

Kd [5]: 0.0586 nM | koff [5]: 1.02e-05 s⁻¹ | kon [5]: 174000 M⁻¹ s⁻¹ | Kd [6]: 3.01 nM | koff [6]: 0.000986 s⁻¹ | kon [6]: 328000 M⁻¹ s⁻¹ | % Gated in M1 [7]: 72.4% | Geo Mean in M1 [7]: 29.1 | Geo Mean, all events [7]: 20.7 | Mean in M1 [7]: 33 | Mean, all events [7]: 26.4 | % Gated in M1 [8]: 51% | Geo Mean in M1 [8]: 19.1 | Geo Mean, all events [8]: 10.8 | Mean in M1 [8]: 20.3 | Mean, all events [8]: 13.8
B7: ME4.A2 anti-PD-L1 antibody (IgG form) (antibody, V domains shown)
VH: B2 VH with Y100S, S101R, E105H
VL: B2 VL

Reference: US20210054078A1 (PHARMABCINE, published 2021)
